“Also recorded” adds a separate entry of the source. Like-named read-outs stand apart in the source and are kept apart here.
Legend:
AZI1 RNA = conditions: LNCaP cells
TMPRSS2 mRNA = conditions: LNCaP cells
TMPRSS2-ERG fusion [1] = test system: TMPRSS2-ERG fusion
TMPRSS2-ERG fusion [2] = test system: TMPRSS2-ERG fusion; remark: listed apart in the source
Protocol: (§2) LNCaP cells were cultured in this special medium for 24 hrs prior to plasmid transfection.
(§3) Transfection was performed using Turbofect transfection reagent (Thermo Scientific, #R0531) according to manufacturer's protocol. Briefly, 1 μg of a particular plasmid was first diluted in 100 μl of the serum-free DMEM followed by immediate mixing by pipetting. 4 μl of the transfection reagent was then added to the diluted DNA followed by mixing and incubation for 20 min. The DNA/transfection reagent mixture was then added drop wise to a well containing LNCaP cells in 1 ml medium.
(§4) For treating cultured cells, concentrated DHT stock was diluted as 10× working solutions (for example, for 0.9 μM final concentration, 10× is prepared as 9.0 μM) with the appropriate complete culture medium and used immediately. […] Six hrs post transfection, 111 μl of fresh 10× DHT working solutions was added to each well of 12-wells plate containing 1 ml medium and transfected cells.
(§5) Briefly, cells were suspended in 200 μl of PBS buffer and were then lysed with 400 μl of lysis buffer. The sample was then passed through the filter assembly resulting in the binding of the nucleic acids to the filter. The filter containing nucleic acids was then incubated with DNase I dissolved in DNase incubation buffer to degrade genomic and plasmid DNAs. The column was then rinsed with wash buffer and total RNA then eluted in a new tube for further analysis.
(§6) After the addition of dNTPs, the mixture was denatured at 65° C. for 5 minutes. This was followed by the addition of a master-mix containing 1× superscript buffer, 10 mM DTT, 5 mM Magnesium chloride, RNaseOUT and Superscript III reverse transcriptase. Reactions were carried out at 50° C. for 50 minutes and then terminated by incubation at 85° C. for 5 minutes. cDNA was then treated with RNase-H for 20 minutes at 37° C. to degrade RNA in DNA/RNA hybrid. 1 μl of cDNA was used as template for each subsequent PCR reaction.
(§7) The Denaturation, Annealing and Extension steps were performed 32 cycles for induced fusion RNA and 27 cycles for input RNA.

ERG mRNA [3] = assay: RT-PCR of endogenous ERG mRNA in LNCaP cells
[4] = test system: TMPRSS2-ERG genomic breakpoint; type: cell-based, human
Protocol: (§1) Nested long-range PCRs according to the manufacturer's protocols using LA PCR kit (Takara, #RR002M). 200 ng of genomic DNA was used in each reaction and PCR was performed with annealing and extension at 68° C. for 20 minutes. 1 μl from the above reaction (1st round PCR) was used as template for the 2nd round PCR.
For the genomic breakpoint identified in this manuscript, 1st round long range PCR was done using primers TMPRSS2 genomic bk-F1 and ERG genomic bk-R1 shown in primer list below. 1 μl from the above reaction (1st round PCR) was used as template for the 2nd round PCR using inner primers TMPRSS2 genomic bk-F2 and ERG genomic bk-R2.

[5] = RT-PCR detection of input RNA in propagated/enriched LNCaP population; type: cell-based, human; conditions: enriched LNCaP population
Protocol: FIG. 18. Procedure used to propagate and enrich the induced LNCaP population for 52 days in the absence of DHT. LNCaP cells were transfected on day 1 with antisense-5 and incubated for 3 days with DHT. Cells were then divided into sub-populations. Half of the cells from each sub-population were harvested for RT-PCR assays to detect the induced fusion transcript whereas the other half was used to propagate the population. […] The process was continued for 52 days.

ERG mRNA [6] = test system: ERG mRNA
TMPRSS2-ETV1 fusion = assay: RT-PCR detection of induced TMPRSS2-ETV1 fusion transcript in LNCaP cells; type: cell-based, human; conditions: for TMPRSS2-ETV1 fusion, specificity of input RNA: three-round nested PCR (FIG. 4C)
Protocol: • 1st Round: Top down PCR with TMPRSS2 ex-1 F1 and ETV1 ex-6 R1 • Denaturation 94° C., 30 sec • Annealing * , 45 sec • Extension 72° C., 60 sec
The Denaturation, Annealing and Extension steps were performed 2 cycles. • 2 cycles at each temperature: 62° C., 61° C., 60° C. . . .
Long Range PCR for Detecting Genomic DNA Fusion Junction

TMPRSS2-ERG fusion [7] = assay: RT-PCR detection of induced endogenous TMPRSS2-ERG fusion transcript in LNCaP cells expressing input RNA; conditions: for induction of endogenous TMPRSS2-ERG fusion transcript (RT-PCR): LNCaP cells transfected with input RNA plasmid, DHT for 3 days; for TMPRSS2-ERG fusion, specificity of input RNA: three-round nested PCR (FIG. 4C)
Protocol: as §2, §3, §4, §5, §6, §7

[8] = test system: TMPRSS2-ETV1 genomic breakpoints; assay: Genomic PCR of TMPRSS2-ETV1 genomic breakpoints in enriched LNCaP population; type: cell-based, human; conditions: enriched vs untransfected LNCaP cells
Protocol: as §1

TMPRSS2-ETV1 fusion gene = assay: FISH with 3D image reconstruction, co-localization of TMPRSS2 and ETV1 in enriched LNCaP population; type: cell-based, human; conditions: 30 out of 3301 cells
Protocol: Enriched population carrying TMPRRS2-ETV1 fusion events were first grown on 18 mm round #1 coverglass in a 12-well cell culture plate at the initial density of 200-400 k/well. Cells were then fixed with 4% (vol./vol.) formaldehyde followed by denaturation of DNA with 0.1 N HCl for 5 min and with 70% formamide at 85° C. for 7 min. Hybridization of target DNA with probes were done at 37° C. for 16 hr in a humidified chamber. Cells were then washed, stained with DAPI and imaged with microscope. FISH probes for TMPRSS2 (RP11-35C4, red) and ETV1 (RP11-769K2, green) were purchased from Empire Genomics.

Q: Which results are given for `C[C@]12CCC(=O)C[C@@H]1CC[C@@H]1[C@@H]2CC[C@]2(C)[C@@H](O)CC[C@@H]12` [DHT, 5α-Androstan-17β-ol-3-one]?
A: endogenous AZI1 RNA expression (AZI1 RNA): upregulated; TMPRSS2 mRNA expression (TMPRSS2 mRNA): upregulated; TMPRSS2-ERG fusion transcript in PNT1A cells with DHT alone (TMPRSS2-ERG fusion [1]): no detectable fusion transcripts; DHT concentration at which fusion induction is detectable (TMPRSS2-ERG fusion [2]): ~0.6 µM; DHT concentration at which fusion induction reaches its maximum (TMPRSS2-ERG fusion [2]): 1.5 µM; endogenous ERG mRNA (three-rounds of nested RT-PCR) (ERG mRNA [3]; presence or absence of DHT or antisense-5): not detected; endogenous ERG mRNA (RT-PCR) (ERG mRNA [3]; wide range of DHT, presence or absence of antisense-5): not detected

B1: Antisense-5: input RNA, SEQ ID NO: 8 (nucleic acid)
antisense: TGTGCTCGCTTCGGCAGCACATATACTAACATTGGAACGATCCTGCAGCTTGAGCCATTCACCTGGCTAGGGTTACATTCCATATTGATGGTGACCCTGGCTGGGGGTTGAGACAGCCAATCCGCCGCTCACCTGCCGCGCTCCAGGCGGCGCTCCCCGCCCCTCGCCCTCCGCCAGACAGGAGTGAGAGATGGAAGCTCGCGCCTACTC
Q: With B1 as the molecule, how does the “genomic TMPRSS2-ERG fusion band (~862 bp, primer pair A/D)” value [4] read?
A: Its value is “present only in the enriched LNCaP population”.

Q: And the “time after transfection until which transiently expressed input RNA is present (RT-PCR)” value [5]?
A: Its value is at most 17 days.

Q: What about the “endogenous ERG mRNA (RT-PCR)” value (ERG mRNA [6]) of the same molecule?
A: The value was “not detected”.

Q: What about the “endogenous ERG mRNA (three-rounds of nested RT-PCR)” value (ERG mRNA [6]) of the same molecule?
A: The value was “not detected”.

Q: And the “Cell line(s) identified” value (TMPRSS2-ERG fusion [1])?
A: Its value is “PNT1A”.

Q: And the “TMPRSS2-ETV1 fusion, specificity of input RNA” value (TMPRSS2-ETV1 fusion; LNCaP)?
A: Its value is “not TMPRSS2-ETV1 fusion”.

Q: And the “induction of endogenous TMPRSS2-ERG fusion transcript (RT-PCR)” value (TMPRSS2-ERG fusion [7])?
A: Its value is “clear induction”.

Q: And the “induction of endogenous TMPRSS2-ERG fusion transcript (RT-PCR)” value (TMPRSS2-ERG fusion [7]; listed as antisense-5)?
A: Its value is “peaked; also recorded: sufficient to induce TMPRSS2-ERG gene fusion”.

Q: And the “lowest DHT concentration at which fusion induction occurred” value (TMPRSS2-ERG fusion [7]; LNCaP, 3 days, three-rounds of nested PCR)?
A: Its value is 20 nM.

Q: And the “TMPRSS2-ERG fusion, specificity of input RNA” value (TMPRSS2-ERG fusion [7]; LNCaP)?
A: The value was “induced TMPRSS2-ERG fusion”.

Q: And the “persistence of induced TMPRSS2-ERG fusion transcript” value (TMPRSS2-ERG fusion [7]; enriched LNCaP population propagated in absence of DHT and input RNA)?
A: The value was at least 52 days.

Q: What about the “Cell line(s) identified” value (TMPRSS2-ERG fusion [7]; fusion gene partners TMPRSS2-ERG, LNCaP) of the same molecule?
A: The value was “LNCaP,”.

Q: And the “induction of TMPRSS2-ERG fusion after transfection of digested plasmid fragments” value (TMPRSS2-ERG fusion [7]; plasmid cut SacII/KpnI or SacII/PstI)?
A: Its value is “induced only when the U6 promoter was attached to antisense-5 sequence”.

B2: Antisense-TMPRSS2-ETV1-A1: input RNA, SEQ ID NO: 34; antisense RNA designed to target stem TMPRSS2-ETV1-A (nucleic acid)
antisense: TGTGCTCGCTTCGGCAGCACATATACTAACATTGGAACGATCCTGCAGTGCCGCATTATGTAAATCGTTCCAAGTTAAAGTCTTAGTTAGATTCAGTAGACTAGGAGCCAGCTTTGGGGACCCCGGGGGACTCTCTTCCACCAACTGG
Q: With B2 as the molecule, how does the “time after transfection until which transiently expressed input RNA is present (RT-PCR)” value [5] read?
A: Its value is under 47 days.

Q: And the “TMPRSS2-ETV1 fusion, specificity of input RNA” value (TMPRSS2-ETV1 fusion; LNCaP)?
A: Its value is “induced TMPRSS2-ETV1 fusion”.

Q: And the “induction of TMPRSS2-ETV1 fusion transcript (RT-PCR)” value (TMPRSS2-ETV1 fusion; LNCaP, two-round nested PCR)?
A: Its value is “clear induction of the TMPRSS2-ETV1 fusion transcript; also recorded: led to induced fusion transcript”.

Q: And the “persistence of induced TMPRSS2-ETV1 fusion transcript” value (TMPRSS2-ETV1 fusion; enriched LNCaP population post initial treatment)?
A: Its value is at least 47 days.

Q: What about the “Cell line(s) identified” value (TMPRSS2-ETV1 fusion; fusion gene partners TMPRSS2-ETV1) of the same molecule?
A: Its value is “LNCaP”.

Q: What about the “genomic TMPRSS2-ETV1 fusion bands x, y, z” value [8] of the same molecule?
A: The value was “present only in the induced and enriched LNCaP population”.

Q: What about the “cells positive for TMPRSS2-ETV1 fusion gene by co-localized FISH signals” value (TMPRSS2-ETV1 fusion gene) of the same molecule?
A: The value was “Approximately 0.9%”.

Q: What about the “TMPRSS2-ERG fusion, specificity of input RNA” value (TMPRSS2-ERG fusion [7]; LNCaP) of the same molecule?
A: Its value is “not TMPRSS2-ERG fusion”.

Source: patent publication US12180473B2, “Chimeric RNA-driven genomic rearrangement in mammalian cells” (priority 2018, dated 2024)
